Results published in paper PMC10470768.

What was measured:
[1] = test system: Tde1tox H279A/D282A (catalytically inactive Ntox15 domain) (Phocaeicola vulgatus); assay: BLI; details: BLI (Octet Red96), biotinylated oligo on streptavidin sensors, Octet kinetics buffer (Sartorius), association 300 s, dissociation 600 s, one-site equilibrium …
[2] = target: Tdi orphan A (TdioA), orphan immunity protein; assay: BLI; Octet Red96; hexahistidine immunity proteins (5 mg/mL) immobilised on NTA biosensors; varying concentrations of Tde1^tox H279A/D282A in Octet kinetics buffer; association 300 s, dissociation 600 s; one site fit of equilibrium binding data
[3] = target: Tdi orphan B (TdioB), orphan immunity protein; assay: as above
[4] = target: Tdi1 (cognate immunity protein of Tde1) (Phocaeicola vulgatus); assay: as above

| Substance | Kd [1] [µM] | Kd [2] [µM] | Kd [3] [µM] | Kd [4] [µM] |
| --- | --- | --- | --- | --- |
| 30-bp random-sequence biotinylated dsDNA | 0.5 |  |  |  |
| 30-nt random-sequence biotinylated ssDNA | 0.5 |  |  |  |
| Tde1^tox H279A/D282A (catalytically inactive Ntox15 domain of the Hcp-Ntox15 effector Tde1) (domain or fragment) |  | 0.024 | 0.019 | 0.018 |
